Assay results: US20170204150A1 (Stanford University, published 2017)

Assays:
[1] = target: T1, VEGFR2-Fc (UniProt P35968 20-764, limits assumed); assay: yeast surface display, titration with soluble VEGFR2-Fc, % maximum VEGFR2-Fc bound
T1 construct: Neither the source nor the limits of the VEGFR2-Fc construct are stated; also called VEGFR2 receptor; not shown: Fc part

[2] = target: T1, VEGFR2-Fc; assay: yeast surface display: scVEGFmut displayed on the yeast cell surface, titrated with soluble VEGFR2-Fc (upper table; taken as the yeast-display table from legend paragraph 18)
[3] = target: T1, VEGFR2-Fc; assay: soluble protein binding to VEGFR2-Fc, Octet platform (lower table; taken as the soluble-form table from legend paragraph 18 and paragraph 153)
From the text: The Octet® platform was used to measure the soluble affinity of the variants to VEGFR2-Fc and their respective target proteins. As with the results on the yeast surface, the variants' affinities to VEGFR2-Fc were similar to each other and to scVEGFmut.

[4] = target: T1, VEGFR2-Fc; assay: yeast surface display: VEGFR2/PSMA displayed on the yeast cell surface, titrated with soluble VEGFR2-Fc (upper table; taken as the yeast-display table from legend paragraph 18)
[5] = target: T2, prostate specific membrane antigen (PSMA) (UniProt Q04609 44-750, limits assumed); assay: yeast surface display: VEGFR2/PSMA displayed on the yeast cell surface, titrated with soluble PSMA (upper table; taken as the yeast-display table from legend paragraph 18)
T2 construct: also called folate hydrolase I

[6] = target: T2, prostate specific membrane antigen …; assay: yeast surface display, titration with soluble PSMA, PSMA bound in arbitrary fluorescence

T1 sequence (P35968 20-764 limits assumed): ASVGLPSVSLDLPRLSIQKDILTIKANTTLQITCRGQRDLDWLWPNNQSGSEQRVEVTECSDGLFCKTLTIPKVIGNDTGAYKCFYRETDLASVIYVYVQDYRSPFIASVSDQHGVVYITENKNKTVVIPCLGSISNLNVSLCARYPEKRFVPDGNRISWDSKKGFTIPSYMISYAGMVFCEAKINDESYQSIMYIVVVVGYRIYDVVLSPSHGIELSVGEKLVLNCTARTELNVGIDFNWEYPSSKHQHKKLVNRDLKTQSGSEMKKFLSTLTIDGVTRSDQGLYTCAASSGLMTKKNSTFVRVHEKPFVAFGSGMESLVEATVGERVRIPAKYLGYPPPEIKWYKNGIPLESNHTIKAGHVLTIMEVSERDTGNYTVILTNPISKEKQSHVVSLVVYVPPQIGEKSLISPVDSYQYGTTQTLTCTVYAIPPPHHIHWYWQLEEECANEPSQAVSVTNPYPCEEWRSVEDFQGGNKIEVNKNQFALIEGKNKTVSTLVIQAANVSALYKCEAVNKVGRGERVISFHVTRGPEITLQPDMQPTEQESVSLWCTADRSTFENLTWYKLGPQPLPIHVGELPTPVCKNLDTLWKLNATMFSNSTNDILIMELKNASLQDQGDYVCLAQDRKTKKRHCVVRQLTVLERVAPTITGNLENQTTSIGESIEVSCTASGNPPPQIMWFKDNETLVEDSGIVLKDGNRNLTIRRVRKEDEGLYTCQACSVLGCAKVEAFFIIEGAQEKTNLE
T2 sequence (Q04609 44-750 limits assumed): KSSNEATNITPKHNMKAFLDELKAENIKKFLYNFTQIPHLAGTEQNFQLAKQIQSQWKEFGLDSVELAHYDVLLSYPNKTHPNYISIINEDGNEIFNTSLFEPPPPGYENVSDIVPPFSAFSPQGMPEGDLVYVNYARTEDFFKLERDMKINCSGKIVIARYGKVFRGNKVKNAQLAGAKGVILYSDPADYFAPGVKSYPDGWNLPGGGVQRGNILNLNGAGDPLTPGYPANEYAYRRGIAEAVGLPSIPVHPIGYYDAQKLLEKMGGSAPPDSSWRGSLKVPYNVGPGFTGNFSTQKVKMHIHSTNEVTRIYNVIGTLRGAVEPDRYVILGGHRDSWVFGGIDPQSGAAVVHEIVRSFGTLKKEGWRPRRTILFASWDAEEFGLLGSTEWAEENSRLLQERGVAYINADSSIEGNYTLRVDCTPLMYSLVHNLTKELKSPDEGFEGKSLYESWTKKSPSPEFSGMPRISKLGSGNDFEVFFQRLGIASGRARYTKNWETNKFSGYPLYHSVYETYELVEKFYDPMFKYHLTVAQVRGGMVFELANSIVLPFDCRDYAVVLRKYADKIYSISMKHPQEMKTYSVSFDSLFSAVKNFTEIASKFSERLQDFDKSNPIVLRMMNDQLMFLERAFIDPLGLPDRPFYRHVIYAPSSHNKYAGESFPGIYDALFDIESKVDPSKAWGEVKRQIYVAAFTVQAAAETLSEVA

| Binder | EC50 (read off the curve) [1] | Kd [2] | Kd [3] | Kd [4] | Kd [5] | EC50 (read off the curve) [6] |
| --- | --- | --- | --- | --- | --- | --- |
| scVEGFmut (ligand, also called single-chain antagonist mutant VEGF; scaffold protein) APMAEGGGQNHHEVVKAMDVYQRSYCHPIETLVDIFQEYPDEIEYIFKPSCVPLMRCGGCCNDAGLECVPTEESNITMQIMRIKPHQGQHIGEMSFLQHNKCECRPKKDRARQEKCDKPRRGGGGSGGGGSGGGGSGGGGSAPMAEGGGQNHHEVVKFMDVYQRSYCHPIETLVDIFQEYPDEIEYAFKPSCVPLMRCGGCCNDEGLECVPTEESNITMQIMRAKPHQGQHIGEMSFLQHNKCECRPKKDRARQEKCDKPRR | ~6 nM | 6 nM | 13 nM | – | – | – |
| VEGFR2/PSMA protein (designed binder) EVVKAMDVYQRSYCHPIETLVDIFQEYPDEIEYIFKPSCVPLMRCGGCCNDAGLECVPTEESNITMQIMRIKPHQGQHIGEMSFLQHNKCECRPKKDGGGGSGGGGSGGGGSGGGGSEVVKFMDVYQRSYCHPIETLVDIFQEYPSIASWNPWMAFKPSCVPLMRCGGCCNDEGLECVPTEESNITMQIMRNRLFRYLPVRHIGEMSFLQHNKCECRPKKD | ~4 nM | – | 13 nM | 4.6 nM | 58 nM | ~40 nM |
